Test results from US20060009452A1, “Therapeutic targeting of PARC/CCL18 and its signaling in pulmonary fibrosis” (priority 2004, published 2006).
“Also recorded” adds a separate entry of the source.

Key:
Sp1-sensitive promoter = assay: Luciferase assay of Sp1-sensitive promoter (pGAGC6) in transfected lung fibroblasts; format: cell-based, human; conditions: pGAGC6-transfected primary lung fibroblasts
Description: FIG. 16. Stimulation with PARC increases Sp1 promoter-stimulating activity in cultured primary lung fibroblasts. Luciferase activity was measured in a chemiluminescence-based assay in cell lysates from the following fibroblast cultures: mock-transfected non-stimulated (Medium), pGAM-transfected non-stimulated (pGAM Ctrl), pGAM-transfected PARC-stimulated (PGAM PARC), pGAGC6-transfected non-stimulated (pGAGC6 Ctrl), and pGAGC6-transfected PARC-stimulated (pGAGC6 PARC).

TGF-β1 = TGF-β1 ELISA of fibroblast supernatants and lysates; format: cell-based, human; conditions: 300 ng/ml rhPARC
Text: Transforming Growth Factor-β ELISA Assays. ELISA kits for TGF-β1 and TGF-β2 were purchased from R&D Systems. ELISA for TGF-β3 was custom developed using a DuoSet ELISA Development System (R&D Systems) following manufacturer's recommendations. […] Recombinant human TGF-β1, TGF-β2, and TGF-β3 from R&D Systems were used in serial dilutions for calibration of the assays. The minimal detection level in these assays was 10-20 pg/ml of TGF-β. Low serum cell culture medium containing 0.5% dialyzed fetal bovine serum had no detectable TGF-β and was used as a negative control in these assays. Each of LF1-LF4 cultures was tested in duplicates for each time point in at least three independent experiments.
Transforming Growth Factor-β1 ELISA Assays. ELISA kits for transforming growth factor (TGF)-β1 were purchased from R&D Systems (Minneapolis, Minn.), and fibroblast culture supernatants and whole cell lysates after 3, 6, 12, 24, 48, and 72 h activation with rhPARC were assayed in duplicates for total TGF-β1, according to the manufacturer's instructions. Low-serum cell culture medium containing 0.5% dialyzed fetal bovine serum had no detectable TGF-β1 and was used as a negative control in these assays.
ELISA kits for TGF-β1, -β2, and -β3 were purchased from R&D Systems and assays performed following manufacturer's recommendations. […] The minimal detection level in these assays was 10-20 pg/ml of TGF-β. […]

mouse fibroblasts = assay: Collagen Western blot in wild-type and Smad3-/- mouse fibroblasts; format: cell-based
Description: Collagen was quantified by Western blotting and the identity of collagen bands was confirmed by sensitivity to pepsin and collagenase digestion as described elsewhere in Atamas et al. (Am. J. Respir. Cell. Mol., 29:743-749 (2003)). In these assays, pro-collagen appears as a single or double band with a molecular weight of approximately 175 kDa (4,27,28).
Transient transfection with 1 μg of Sp1 and Smad3 dominant negative mutant constructs abrogated basal and PARC-stimulated upregulation of collagen production, whereas transfection with 0.2 μg of the constructs inhibited the response to PARC stimulation but not basal collagen production (FIG. 19A,B).

Smad3/4 = assay: EMSA of nuclear lysates with Smad3/4 probe; format: cell-based, human
α2(I) collagen mRNA = assay: Real-time PCR for α2(I) collagen mRNA relative to 18S rRNA; format: cell-based, human
Smad3 = Smad3 immunoprecipitation and phosphorylation Western blot; format: cell-based, human; conditions: fibroblasts activated with cytokine
Description: To determine if PARC stimulated phosphorylation of Sp1 and Smad3, these factors were immunoprecipitated from lysates of fibroblasts that had been activated with recombinant human PARC for up to 24 hours, and the levels of their phosphorylation were tested in Western blotting assays using anti-phosphoserine and anti-phospho-Smad2/3 antibodies. Equal loading was controlled by stripping the membranes and re-developing them with anti-Sp1, anti-Smad3 and anti-Smad2/3 antibodies (FIG. 17).
Preparation of fibroblast lysates, immunoprecipitation of Sp1 and Smad2/3, normalization of protein concentration in the samples with BioRad assays, electrophoretic separation, Western blotting, membrane stripping and re-development with different antibodies were performed as described in Atamas et al. (Am. J. Respir. Cell. Mol., 29:743-749 (2003); J. Immunol. 168: 1139-1145 (2002); and Arthritis Rheum., 42:1168-1178 (1999)), which are hereby incorporated by reference. Rabbit antibodies for total Smad2/3 and Sp1 were from Upstate (Waltham, Masss.). Antiphospho-Smad2/3 antibody and goat antibody for total Smad3 were from Santa Cruz Biotechnology (Santa Cruz, Calif.), as was anti-gp130 antibody used to confirm equal loading of the samples. Antiphosphoserine antibody was from Biomol (Plymouth Meeting, Pa.).

B1: rhPARC: Recombinant human pulmonary and activation-regulated chemokine (CC chemokine CCL18), purchased from R&D Systems and Cell Sciences (protein)
chain: AQVGTNKELCCLVYTSWQIPQKFIVDYSETSPQCPKPGVILLTKRGRQICADPNKKWVQKYISDLKLNA
Sp1 promoter-stimulating activity (luciferase) (Sp1-sensitive promoter): leads to activation of the Sp1-sensitive promoter | maximal increase in production of TGFβ1 by fibroblasts (TGF-β1; 3-72 h, lung and dermal fibroblast lines): 1.3±0.2 fold | total TGF-β1 in culture supernatants after stimulation (TGF-β1; primary lung fibroblast cultures): decreased | collagen production response to PARC stimulation (mouse fibroblasts; Smad3-/- mouse fibroblasts): did not | collagen production response to PARC stimulation (mouse fibroblasts; wild-type mouse fibroblasts): responded to PARC stimulation by upregulating collagen production | density of the specific Smad3 band relative to the density at time 0 (Smad3/4; LF1, LF2, LF4, rhPARC-stimulated samples): 0.9-1.2 fold | DNA-binding activity of Smad3/4 (EMSA) (Smad3/4; after activation with PARC): No increase; also recorded: but not Smad3/4 | steady-state collagen α2(I) mRNA level versus control (α2(I) collagen mRNA; LF1 and LF2, 300 ng/ml rhPARC, 3 and 6 h): transiently increased; also recorded: higher than in control cells | higher concentration of collagen mRNA in treated samples versus control (α2(I) collagen mRNA; lung fibroblasts, 300 ng/ml rhPARC, 6 h): approximately 4 fold | phosphorylation of immunoprecipitated Smad3 (Smad3): No changes in phosphorylation
